The labels stand for the following.
T1: hiR1-FL-WT-T7 (human, UniProt Q96CC6 1-855)
T1 construct: on MEF-DKO cells
T1 sequence: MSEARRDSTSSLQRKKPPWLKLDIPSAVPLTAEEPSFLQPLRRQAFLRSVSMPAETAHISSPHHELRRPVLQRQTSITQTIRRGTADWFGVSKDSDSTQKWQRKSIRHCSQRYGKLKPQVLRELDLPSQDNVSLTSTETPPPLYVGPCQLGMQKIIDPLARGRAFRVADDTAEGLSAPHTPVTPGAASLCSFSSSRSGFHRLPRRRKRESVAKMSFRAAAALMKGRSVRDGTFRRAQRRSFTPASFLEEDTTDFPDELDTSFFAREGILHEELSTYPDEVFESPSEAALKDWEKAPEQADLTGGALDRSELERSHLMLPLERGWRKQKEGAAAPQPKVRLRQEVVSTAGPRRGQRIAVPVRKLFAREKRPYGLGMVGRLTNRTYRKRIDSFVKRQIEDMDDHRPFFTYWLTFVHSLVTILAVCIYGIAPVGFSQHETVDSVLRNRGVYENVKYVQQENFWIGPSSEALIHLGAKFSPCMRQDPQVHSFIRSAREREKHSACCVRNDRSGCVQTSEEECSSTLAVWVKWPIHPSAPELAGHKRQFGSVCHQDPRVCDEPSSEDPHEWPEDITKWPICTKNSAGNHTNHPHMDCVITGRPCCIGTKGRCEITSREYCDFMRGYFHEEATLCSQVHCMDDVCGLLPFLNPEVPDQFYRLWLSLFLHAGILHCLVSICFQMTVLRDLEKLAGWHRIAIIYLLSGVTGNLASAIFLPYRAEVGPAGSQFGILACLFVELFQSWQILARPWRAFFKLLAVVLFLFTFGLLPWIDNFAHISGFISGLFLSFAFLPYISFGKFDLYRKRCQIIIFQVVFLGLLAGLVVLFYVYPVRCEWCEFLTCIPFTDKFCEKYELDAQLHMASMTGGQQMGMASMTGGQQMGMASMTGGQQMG

T2: hiR2-FL-S537E-T7 (human, UniProt Q6PJF5 1-856)
T2 sequence: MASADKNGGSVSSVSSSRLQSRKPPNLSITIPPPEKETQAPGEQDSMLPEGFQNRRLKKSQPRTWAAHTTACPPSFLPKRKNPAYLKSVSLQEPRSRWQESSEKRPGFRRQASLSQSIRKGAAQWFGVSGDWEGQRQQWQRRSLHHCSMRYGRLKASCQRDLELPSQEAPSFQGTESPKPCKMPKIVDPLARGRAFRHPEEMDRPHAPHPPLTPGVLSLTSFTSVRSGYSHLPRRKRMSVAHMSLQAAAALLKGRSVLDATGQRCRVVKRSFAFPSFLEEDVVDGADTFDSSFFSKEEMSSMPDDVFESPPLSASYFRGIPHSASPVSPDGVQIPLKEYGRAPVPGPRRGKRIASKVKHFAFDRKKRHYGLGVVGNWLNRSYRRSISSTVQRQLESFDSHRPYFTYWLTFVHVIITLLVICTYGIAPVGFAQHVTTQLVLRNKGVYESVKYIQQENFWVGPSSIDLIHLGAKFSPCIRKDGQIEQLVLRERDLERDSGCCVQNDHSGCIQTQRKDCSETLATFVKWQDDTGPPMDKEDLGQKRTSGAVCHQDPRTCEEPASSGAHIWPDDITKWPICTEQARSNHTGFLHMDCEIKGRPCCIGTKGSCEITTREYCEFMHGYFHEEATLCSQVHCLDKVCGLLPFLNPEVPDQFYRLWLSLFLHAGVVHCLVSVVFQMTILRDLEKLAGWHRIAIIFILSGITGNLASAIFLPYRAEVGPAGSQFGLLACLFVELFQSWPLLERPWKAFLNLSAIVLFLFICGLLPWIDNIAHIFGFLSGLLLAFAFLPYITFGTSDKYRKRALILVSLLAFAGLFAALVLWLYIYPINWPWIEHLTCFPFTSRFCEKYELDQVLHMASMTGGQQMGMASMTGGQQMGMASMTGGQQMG

B1: antibody 34 (antibody, V domains shown)
VH: QVTLKESGPGILQPSQTLSLTCSFSGFSLSTFSLGVGWIRQSSGKGLEWLAHIWWDDEKYYNPALKSRLTISKDTSKNQVFLKIANVDAADTATYYCARAYYSKSYYALDYWGQGTSVTVSS
VL: DIQMTQSPSSLSASLGERVSLTCRASQEISGYLSWLQQKPDGTIKRLIYAASTLDSGVPKRFSGSRSGSDYSLAISSLESEDFADYYCLQYANFPFTFGSGTKLEIK
notes: mouse IgG, kappa light chain; also called clone #34; purified antibody 34
B2: antibody 48 (antibody, V domains shown)
VH: QVQLQQSGTELVRPGTSVKVSCKASGYAFTNYLIEWVKQRPGQGLEWIGVINPGSGFTKYNEKFKGKATLTADKSSSTVYMHLSSLTSEDSAVYFCARGLYRAMDYWGQGTSVTVSS
VL: DIQMTQSPASQSASLGESVTITCLASQTIATWLAWYQQKPGKSPQLLIYGATTLADGVPSRFSGGGSGTKFSFKISSLQAEDFVSYYCQQLYSTPYTFGGGTKLEIK
notes: mouse IgG, kappa light chain; also called clone #48; purified antibody 48
B3: antibody 50 (antibody, V domains shown)
VH: B2 VH with T9A, T16A, T30S, V79A, H82Q
VL: B2 VL with A30G, G50A, T52A, T53S, S85N, L91I
notes: mouse IgG, kappa light chain; also called clone #50; purified antibody 50
B4: antibody 16 (antibody, V domains shown)
VH: QVTLKESGPGILQPSQTLSLTCSFSGFSLSTFALGVGWIRQPSGRGLEWLAHIWWDDDKYYNPALKSRLTISKDTSKNHVFLKIANVDTADTATYYCARITTYYYGMDYWGQGTSVTVSS
VL: DIVLSQSPATLSVTPGDSVSLFCRASQSIGNHLHWYQQESHASPRLLIKYASQSISGIPSRFSGSGSGTDFTLSINSVETEDFGMYFCQQSYNWPLTFGAGTKLELK
notes: mouse IgG, kappa light chain; also called clone #16; purified antibody 16
B5: antibody 3 (antibody, V domains shown)
VH: QVTLKESGPGILQPSQTLSLTCSFSGFSLTTFAMGIGWVRQPSGKGLEWLAHIWWDGEKYNNPVLKSRLTISKDTSKNQVFLRIANVDTPDTATYYCARISSIYYIIDNWGQGTSVTVSS
VL: B4 VL with S5T, D17H, F22S, G30S, H32N, Q38K, E39K, A42E, A51V
notes: mouse IgG, kappa light chain; also called clone #3; purified antibody 3
B6: antibody 5 (antibody, V domains shown)
VH: QVTLKESGPGILQPSQTLSLTCSFSGFSLSTFGMGVGWIRQPSGKGLEWLAHIWWDDEKYYNSALKSRLTISKATSKNQAFLKIANVDTADTATYYCARISNYGSNYWYFNVWGTGTTVTVSS
VL: QVVLTQSPALMSASPGEKVTMTCSAGSSVSCMYWYQQKPGSSPRVLIYDTSNLASGVPARFTGSGSGTSYSLTISRMEAEDAASYYCQQWNSYPLTFGAGTKLELK
notes: mouse IgG, kappa light chain; also called clone #5; purified antibody 5
B7: antibody 42 (antibody, V domains shown)
VH: B6 VH with F24L, M34R, S63P, A74D, A80V, K83R, S101Q, N111D
VL: LIVLTQSPAIMSASPGEKVTMTCGATSRISYMFWYQQKPGSSPRVLIYDTSNLASGVPVRFSGSGSGTSYSLTISRVEAEDVATYYCQQWNSYPLTFGAGTKLELK
notes: mouse IgG, kappa light chain; also called clone #42; purified antibody 42
B8: antibody 43 (antibody, V domains shown)
VH: B6 VH with T3A, P42S, H52N, E58D, S63P, A74D, T75A, S101G, N111D
VL: B7 VL with L1Q, K18R, G24S, T26N, F33Y, V45L, V77M, V82A, Y86N, N91S
notes: mouse IgG, kappa light chain; also called clone #43; purified antibody 43
B9: antibody 44 (antibody, V domains shown)
VH: B6 VH with G44E, E58D, S63P, A74D, A80I, A85T, D91E, A98S, S101G, N111D
VL: QIVLTQSPAVMSASPGEKVTMTCTASSSVYYMYWYQQTPGSSPRLLIYDTSNLASGVPVRFSGSGSGTSYSLTISRMEAEDAATYYCQQWNTYPLTFGAGTKLELK
notes: mouse IgG, kappa light chain; also called clone #44; purified antibody 44
B10: antibody 22 (antibody, V domains shown)
VH: B6 VH with A80V
VL: B6 VL with C31Y, S84T
notes: mouse IgG, kappa light chain; also called clone #22; purified antibody 22

Positions count from the first letter of the chain named.

In one experiment the target is T1, hiR1-FL-WT-T7. Description: FACS, MEF-DKO cells, 3 µg/ml. (A flow cytometer gives signals particle by particle.)
As for B1, the “loss of binding vs wild type” value was no less than 95%. Turning to B2, the “loss of binding vs wild type” value is no less than 60%. As to B3, the “loss of binding vs wild type” value is no less than 95%.

Consider B4, for which the “loss of binding vs wild type” value was no less than 95%. As for B5, the “loss of binding vs wild type” value is no less than 95%.

With B6, the “loss of binding vs wild type” value is no less than 95%. Consider B7, for which the “loss of binding vs wild type” value is no less than 95%. Regarding B8, the “loss of binding vs wild type” value was no less than 95%.

For B9, the “loss of binding vs wild type” value was no less than 95%. For B10, the “loss of binding vs wild type” value is no less than 95%.

In the next experiment the target is T2, hiR2-FL-S537E-T7. Description: FACS, MEF-DKO cells, 3 µg/ml.
Turning to B1, the “loss of binding vs wild type” value is no less than 95%. Same read-out and setting: as for B6, the figure is no less than 95%; as for B7, no less than 60%; as for B8, no less than 60%. For B9, the “loss of binding vs wild type” value is no less than 60%. Still for that read-out and setting: for B10 the value was no less than 60%.

(Values after patent US20240287172A1 (SCIRHOM, published 2024).)
